{"source": "paper PMC2814788", "biological_target": "C-terminally myc-tagged Sec8 (Sec8-myc) (S. cerevisiae) (UniProt P32855)", "sequence (P32855 whole entry)": "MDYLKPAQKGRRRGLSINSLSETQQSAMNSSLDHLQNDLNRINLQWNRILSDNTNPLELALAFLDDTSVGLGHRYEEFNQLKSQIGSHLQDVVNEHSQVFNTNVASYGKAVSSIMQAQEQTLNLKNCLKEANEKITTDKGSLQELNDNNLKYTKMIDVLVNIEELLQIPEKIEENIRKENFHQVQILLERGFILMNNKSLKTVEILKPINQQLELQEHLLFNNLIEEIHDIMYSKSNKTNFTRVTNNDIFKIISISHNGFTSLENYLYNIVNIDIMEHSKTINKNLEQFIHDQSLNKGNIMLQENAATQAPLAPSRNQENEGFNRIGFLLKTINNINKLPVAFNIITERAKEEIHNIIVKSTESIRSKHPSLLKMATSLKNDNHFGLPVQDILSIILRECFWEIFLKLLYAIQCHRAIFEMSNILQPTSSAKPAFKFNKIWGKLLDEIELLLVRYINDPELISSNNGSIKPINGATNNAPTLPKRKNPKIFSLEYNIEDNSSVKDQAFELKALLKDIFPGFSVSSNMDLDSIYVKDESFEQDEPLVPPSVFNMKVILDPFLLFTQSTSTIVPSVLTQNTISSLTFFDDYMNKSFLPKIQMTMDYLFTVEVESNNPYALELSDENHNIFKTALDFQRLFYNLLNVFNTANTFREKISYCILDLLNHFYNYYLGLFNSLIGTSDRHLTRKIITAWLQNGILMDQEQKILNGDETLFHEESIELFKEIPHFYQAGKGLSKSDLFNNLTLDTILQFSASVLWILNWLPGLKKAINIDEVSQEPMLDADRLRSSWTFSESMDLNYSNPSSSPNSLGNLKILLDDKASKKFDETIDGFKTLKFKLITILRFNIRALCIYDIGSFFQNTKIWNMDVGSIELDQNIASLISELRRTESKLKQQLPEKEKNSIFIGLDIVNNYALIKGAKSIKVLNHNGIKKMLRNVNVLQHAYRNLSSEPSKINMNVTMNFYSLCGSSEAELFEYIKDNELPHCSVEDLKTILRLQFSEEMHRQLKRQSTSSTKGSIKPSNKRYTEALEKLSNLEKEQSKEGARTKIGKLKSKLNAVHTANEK", "test": "co-IP", "data": [{"substance": "Exo70-E557K (gain-of-function mutant, in yeast lysate) (from UniProt P19658 63-623) (natural protein)", "values": [{"measurement": "reduction of coprecipitated Exo70 against wild type", "value": 25, "unit": "%"}]}]}
